B1: NP_006221.1 (parent)
chain: CQPISFSGFGAEDDDLGGLGLGP

Variants of: B1
Experiment: protein stability index of a GFP-peptide fusion (GPS, HEK-293T) (PSI 1-6); higher = more stable
Conditions: c terminus: native
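Further: lentivirally expressed fusion library, cells FACS-sorted into six equal-sized GFP/DsRed ratio bins, PSI computed from sequencing read fractions per bin weighted by bin number.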

Variant	protein stability index
CQEISFSGFGAEDDDLGGLGLGP [P3E]	2.46
CQRISFSGFGAEDDDLGGLGLGP [P3R]	2.06
CQHISFSGFGAEDDDLGGLGLGP [P3H]	2.06
CQMISFSGFGAEDDDLGGLGLGP [P3M]	2.15
CQGISFSGFGAEDDDLGGLGLGP [P3G]	2.3
CQIISFSGFGAEDDDLGGLGLGP [P3I]	2.29
CQQISFSGFGAEDDDLGGLGLGP [P3Q]	2.42
CQLISFSGFGAEDDDLGGLGLGP [P3L]	2.1
CQSISFSGFGAEDDDLGGLGLGP [P3S]	2.37
CQVISFSGFGAEDDDLGGLGLGP [P3V]	2.14
CQFISFSGFGAEDDDLGGLGLGP [P3F]	1.94
CQKISFSGFGAEDDDLGGLGLGP [P3K]	2.05
CQTISFSGFGAEDDDLGGLGLGP [P3T]	2.09
CQYISFSGFGAEDDDLGGLGLGP [P3Y]	2.01
CQNISFSGFGAEDDDLGGLGLGP [P3N]	2.2
CQDISFSGFGAEDDDLGGLGLGP [P3D]	2.2
CQWISFSGFGAEDDDLGGLGLGP [P3W]	1.94
CQPISFQGFGAEDDDLGGLGLGP [S7Q]	2.48
CQPISFYGFGAEDDDLGGLGLGP [S7Y]	2.6
CQPISFNGFGAEDDDLGGLGLGP [S7N]	3.37
CQPISFDGFGAEDDDLGGLGLGP [S7D]	3.66
CQPISFFGFGAEDDDLGGLGLGP [S7F]	2.48
CQPISFAGFGAEDDDLGGLGLGP [S7A]	1.89
CQPISFEGFGAEDDDLGGLGLGP [S7E]	2.72
CQPISFCGFGAEDDDLGGLGLGP [S7C]	2.11

Variant	protein stability index
CQPISFPGFGAEDDDLGGLGLGP [S7P]	4.14
CQPISFMGFGAEDDDLGGLGLGP [S7M]	2.47
CQPISFVGFGAEDDDLGGLGLGP [S7V]	2.07
CQPISFHGFGAEDDDLGGLGLGP [S7H]	3.06
CQPISFIGFGAEDDDLGGLGLGP [S7I]	2.13
CQPISFRGFGAEDDDLGGLGLGP [S7R]	2.56
CQPISFKGFGAEDDDLGGLGLGP [S7K]	2.77
CQPISFLGFGAEDDDLGGLGLGP [S7L]	2.43
CQPISFWGFGAEDDDLGGLGLGP [S7W]	2.42
CQPISFTGFGAEDDDLGGLGLGP [S7T]	2.19
CQPISFGGFGAEDDDLGGLGLGP [S7G]	2.87
CQPISFSGFGAWDDDLGGLGLGP [E12W]	2.29
CQPISFSGFGATDDDLGGLGLGP [E12T]	2.06
CQPISFSGFGAYDDDLGGLGLGP [E12Y]	2.12
CQPISFSGFGARDDDLGGLGLGP [E12R]	2.31
CQPISFSGFGAMDDDLGGLGLGP [E12M]	2.25
CQPISFSGFGANDDDLGGLGLGP [E12N]	2.32
CQPISFSGFGAKDDDLGGLGLGP [E12K]	2.17
CQPISFSGFGACDDDLGGLGLGP [E12C]	2.43
CQPISFSGFGAADDDLGGLGLGP [E12A]	2.32
CQPISFSGFGADDDDLGGLGLGP [E12D]	2.22
CQPISFSGFGAIDDDLGGLGLGP [E12I]	1.94
CQPISFSGFGAHDDDLGGLGLGP [E12H]	2.48
CQPISFSGFGAGDDDLGGLGLGP [E12G]	2.5
CQPISFSGFGAPDDDLGGLGLGP [E12P]	2.07

Variant	protein stability index
CQPISFSGFGAVDDDLGGLGLGP [E12V]	2.3
CQPISFSGFGALDDDLGGLGLGP [E12L]	1.88
CQPISFSGFGASDDDLGGLGLGP [E12S]	2.44
CQPISFSGFGAFDDDLGGLGLGP [E12F]	2.17
CQPISFSGFHAEDDDLGGLGLGP [G10H]	1.99
CQPISFSGFCAEDDDLGGLGLGP [G10C]	2.04
CQPISFSGFRAEDDDLGGLGLGP [G10R]	2.21
CQPISFSGFTAEDDDLGGLGLGP [G10T]	1.91
CQPISFSGFEAEDDDLGGLGLGP [G10E]	2.08
CQPISFSGFIAEDDDLGGLGLGP [G10I]	2.08
CQPISFSGFWAEDDDLGGLGLGP [G10W]	1.9
CQPISFSGFSAEDDDLGGLGLGP [G10S]	1.95
CQPISFSGFNAEDDDLGGLGLGP [G10N]	2.04
CQPISFSGFMAEDDDLGGLGLGP [G10M]	2.29
CQPISFSGFYAEDDDLGGLGLGP [G10Y]	1.94
CQPISFSGFAAEDDDLGGLGLGP [G10A]	2.16
CQPISFSGFPAEDDDLGGLGLGP [G10P]	1.83
CQPISFSGFFAEDDDLGGLGLGP [G10F]	2.06
CQPISFSGFLAEDDDLGGLGLGP [G10L]	2.56
CQPISFSGFQAEDDDLGGLGLGP [G10Q]	2.3
CQPISFSGFDAEDDDLGGLGLGP [G10D]	2.51
CQPISFSGFVAEDDDLGGLGLGP [G10V]	2.2
CQPISFSGFKAEDDDLGGLGLGP [G10K]	1.96
CQPISFSGFGAECDDLGGLGLGP [D13C]	2.42
CQPISFSGFGAEFDDLGGLGLGP [D13F]	2.54

Variant	protein stability index
CQPISFSGFGAEHDDLGGLGLGP [D13H]	2.2
CQPISFSGFGAEKDDLGGLGLGP [D13K]	1.93
CQPISFSGFGAEEDDLGGLGLGP [D13E]	2.22
CQPISFSGFGAEIDDLGGLGLGP [D13I]	2.5
CQPISFSGFGAEADDLGGLGLGP [D13A]	2.46
CQPISFSGFGAEGDDLGGLGLGP [D13G]	2.53
CQPIDFSGFGAEDDDLGGLGLGP [S5D]	2.69
CQPIQFSGFGAEDDDLGGLGLGP [S5Q]	2.24
CQPIFFSGFGAEDDDLGGLGLGP [S5F]	2.29
CQPIKFSGFGAEDDDLGGLGLGP [S5K]	2.39
CQPIPFSGFGAEDDDLGGLGLGP [S5P]	2.42
CQPICFSGFGAEDDDLGGLGLGP [S5C]	2.16
CQPIEFSGFGAEDDDLGGLGLGP [S5E]	2.99
CQPIRFSGFGAEDDDLGGLGLGP [S5R]	2.14
CQPIYFSGFGAEDDDLGGLGLGP [S5Y]	2.25
CQPIAFSGFGAEDDDLGGLGLGP [S5A]	2.77
CQPITFSGFGAEDDDLGGLGLGP [S5T]	2.41
CQPIIFSGFGAEDDDLGGLGLGP [S5I]	2.75
CQPIHFSGFGAEDDDLGGLGLGP [S5H]	2.42
CQPILFSGFGAEDDDLGGLGLGP [S5L]	2.25
CQPIMFSGFGAEDDDLGGLGLGP [S5M]	2.46
CQPIVFSGFGAEDDDLGGLGLGP [S5V]	2.54
CQPIGFSGFGAEDDDLGGLGLGP [S5G]	2.36
CQPINFSGFGAEDDDLGGLGLGP [S5N]	2.4
CQPIWFSGFGAEDDDLGGLGLGP [S5W]	2.58

Variant	protein stability index
CQPISFSGMGAEDDDLGGLGLGP [F9M]	2.41
CQPISFSGSGAEDDDLGGLGLGP [F9S]	2.56
CQPISFSGLGAEDDDLGGLGLGP [F9L]	2.23
CQPISFSGIGAEDDDLGGLGLGP [F9I]	2.35
CQPISFSGCGAEDDDLGGLGLGP [F9C]	2.36
CQPISFSGQGAEDDDLGGLGLGP [F9Q]	2.54
CQPISFSGGGAEDDDLGGLGLGP [F9G]	3.01
CQPISFSGDGAEDDDLGGLGLGP [F9D]	3.32
CQPISFSGVGAEDDDLGGLGLGP [F9V]	2.25
CQPISFSGHGAEDDDLGGLGLGP [F9H]	2.42
CQPISFSGRGAEDDDLGGLGLGP [F9R]	2.04
CQPISFSGKGAEDDDLGGLGLGP [F9K]	2.4
CQPISFSGPGAEDDDLGGLGLGP [F9P]	3.23
CQPISFSGYGAEDDDLGGLGLGP [F9Y]	2.01
CQPISFSGTGAEDDDLGGLGLGP [F9T]	2.7
CQPISFSGEGAEDDDLGGLGLGP [F9E]	2.98
CQPISFSGWGAEDDDLGGLGLGP [F9W]	2.53
CQPISFSGNGAEDDDLGGLGLGP [F9N]	2.87
CQPISFSGAGAEDDDLGGLGLGP [F9A]	2.58
CQPISFSIFGAEDDDLGGLGLGP [G8I]	2.06
CQPISFSNFGAEDDDLGGLGLGP [G8N]	2.24
CQPISFSEFGAEDDDLGGLGLGP [G8E]	2.03
CQPISFSLFGAEDDDLGGLGLGP [G8L]	1.97
CQPISFSDFGAEDDDLGGLGLGP [G8D]	2.05
CQPISFSQFGAEDDDLGGLGLGP [G8Q]	1.87

Variant	protein stability index
CQPISFSRFGAEDDDLGGLGLGP [G8R]	2.52
CQPISFSCFGAEDDDLGGLGLGP [G8C]	1.96
CQPISFSMFGAEDDDLGGLGLGP [G8M]	2.23
CQPISFSFFGAEDDDLGGLGLGP [G8F]	2.39
CQPISFSTFGAEDDDLGGLGLGP [G8T]	2.34
CQPISFSHFGAEDDDLGGLGLGP [G8H]	1.98
CQPISFSKFGAEDDDLGGLGLGP [G8K]	2.48
CQPISFSPFGAEDDDLGGLGLGP [G8P]	3.55
CQPISFSYFGAEDDDLGGLGLGP [G8Y]	2.31
CQPISFSWFGAEDDDLGGLGLGP [G8W]	2.19
CQPISFSSFGAEDDDLGGLGLGP [G8S]	2.15
CQPISFSVFGAEDDDLGGLGLGP [G8V]	2.16
CQPISISGFGAEDDDLGGLGLGP [F6I]	3.63
CQPISHSGFGAEDDDLGGLGLGP [F6H]	3.48
CQPISDSGFGAEDDDLGGLGLGP [F6D]	4.57
CQPISCSGFGAEDDDLGGLGLGP [F6C]	3.41
CQPISVSGFGAEDDDLGGLGLGP [F6V]	3.43
CQPISNSGFGAEDDDLGGLGLGP [F6N]	4.41
CQPISTSGFGAEDDDLGGLGLGP [F6T]	3.93
CQPISMSGFGAEDDDLGGLGLGP [F6M]	3.53
CQPISKSGFGAEDDDLGGLGLGP [F6K]	4.18
CQPISQSGFGAEDDDLGGLGLGP [F6Q]	4.21
CQPISRSGFGAEDDDLGGLGLGP [F6R]	3.86
CQPISASGFGAEDDDLGGLGLGP [F6A]	3.88
CQPISPSGFGAEDDDLGGLGLGP [F6P]	4.41

Variant	protein stability index
CQPISSSGFGAEDDDLGGLGLGP [F6S]	3.93
CQPISLSGFGAEDDDLGGLGLGP [F6L]	3.5
CQPISWSGFGAEDDDLGGLGLGP [F6W]	2.22
CQPISGSGFGAEDDDLGGLGLGP [F6G]	4.16
CQPISESGFGAEDDDLGGLGLGP [F6E]	4.72
CQPISYSGFGAEDDDLGGLGLGP [F6Y]	2.52
CQPISFSGFGLEDDDLGGLGLGP [A11L]	1.81
CQPISFSGFGEEDDDLGGLGLGP [A11E]	2.02
CQPISFSGFGWEDDDLGGLGLGP [A11W]	2.06
CQPISFSGFGDEDDDLGGLGLGP [A11D]	2.37
CQPISFSGFGIEDDDLGGLGLGP [A11I]	2.65
CQPISFSGFGFEDDDLGGLGLGP [A11F]	1.95
CQPISFSGFGVEDDDLGGLGLGP [A11V]	2.33
CQPISFSGFGREDDDLGGLGLGP [A11R]	2.32
CQPISFSGFGHEDDDLGGLGLGP [A11H]	2.37
CQPISFSGFGYEDDDLGGLGLGP [A11Y]	2.06
CQPISFSGFGQEDDDLGGLGLGP [A11Q]	2.32
CQPISFSGFGKEDDDLGGLGLGP [A11K]	2.09
CQPISFSGFGPEDDDLGGLGLGP [A11P]	2.17
CQPISFSGFGTEDDDLGGLGLGP [A11T]	2.26
CQPISFSGFGCEDDDLGGLGLGP [A11C]	2.08
CQPISFSGFGSEDDDLGGLGLGP [A11S]	2.22
CQPISFSGFGMEDDDLGGLGLGP [A11M]	2.04
CQPISFSGFGGEDDDLGGLGLGP [A11G]	2.36
CQPISFSGFGNEDDDLGGLGLGP [A11N]	2.09

Variant	protein stability index
CQPGSFSGFGAEDDDLGGLGLGP [I4G]	2.29
CQPKSFSGFGAEDDDLGGLGLGP [I4K]	2.05
CQPSSFSGFGAEDDDLGGLGLGP [I4S]	2.31
CQPNSFSGFGAEDDDLGGLGLGP [I4N]	2.45
CQPRSFSGFGAEDDDLGGLGLGP [I4R]	2.08
CQPPSFSGFGAEDDDLGGLGLGP [I4P]	2.2
CQPLSFSGFGAEDDDLGGLGLGP [I4L]	2.11
CQPDSFSGFGAEDDDLGGLGLGP [I4D]	2.48
CQPYSFSGFGAEDDDLGGLGLGP [I4Y]	2.09
CQPESFSGFGAEDDDLGGLGLGP [I4E]	2.41
CQPWSFSGFGAEDDDLGGLGLGP [I4W]	2.25
CQPVSFSGFGAEDDDLGGLGLGP [I4V]	2.54
CQPASFSGFGAEDDDLGGLGLGP [I4A]	2.17
CQPHSFSGFGAEDDDLGGLGLGP [I4H]	2.25
CQPQSFSGFGAEDDDLGGLGLGP [I4Q]	2.15
CQPFSFSGFGAEDDDLGGLGLGP [I4F]	2.12
CQPCSFSGFGAEDDDLGGLGLGP [I4C]	2.43
CQPMSFSGFGAEDDDLGGLGLGP [I4M]	2.21
CQPTSFSGFGAEDDDLGGLGLGP [I4T]	2.47

Source: the supplement of paper PMC10567573
